Measurements taken from article doi:10.1101/2024.02.23.581811 (bioRxiv, 2024).
Substitutions are numbered along the chain they refer to.

B1: NB80-eGFP-HRas (VHH)
VHH: QVQLQESGGGLVQAGGSLRLSCAASGSIFSINTMGWYRQAPGKQRELVAAIHSGGSTNYANSVKGRFTISRDNAANTVYLQMNSLKPEDTAVYYCNVKDYGAVLYEYDYWGQGTQVTVSS
B2: NB80Lite-eGFP-HRas (VHH)
VHH: B1 VHH with H52S, S56G, T57S, N58A

Target: β2-adrenergic receptor (Homo sapiens (Human)., UniProt P07550)
Assay: linear dichroism

Binder | binding result
B1 | binds
B2 | binds
